Test results published in patent US20030207290A1.
Where no end group is shown, it is not given here.

B1: Phospholipase C gamma 1 (PLCγ) (EST clone IMAGE 4419252), in vitro translated, biotin-labelled (enzyme, UniProt P19174 1-1290, looked up)
chain: MAGAASPCANGCGPGAPSDAEVLHLCRSLEVGTVMTLFYSKKSQRPERKTFQVKLETRQITWSRGADKIEGAIDIREIKEIRPGKTSRDFDRYQEDPAFRPDQSHCFVILYGMEFRLKTLSLQATSEDEVNMWIKGLTWLMEDTLQAPTPLQIERWLRKQFYSVDRNREDRISAKDLKNMLSQVNYRVPNMRFLRERLTDLEQRSGDITYGQFAQLYRSLMYSAQKTMDLPFLEASTLRAGERPELCRVSLPEFQQFLLDYQGELWAVDRLQVQEFMLSFLRDPLREIEEPYFFLDEFVTFLFSKENSVWNSQLDAVCPDTMNNPLSHYWISSSHNTYLTGDQFSSESSLEAYARCLRMGCRCIELDCWDGPDGMPVIYHGHTLTTKIKFSDVLHTIKEHAFVASEYPVILSIEDHCSIAQQRNMAQYFKKVLGDTLLTKPVEISADGLPSPNQLKRKILIKHKKLAEGSAYEEVPTSMMYSENDISNSIKNGILYLEDPVNHEWYPHYFVLTSSKIYYSEETSSDQGNEDEEEPKEVSSSTELHSNEKWFHGKLGAGRDGRHIAERLLTEYCIETGAPDGSFLVRESETFVGDYTLSFWRNGKVQHCRIHSRQDAGTPKFFLTDNLVFDSLYDLITHYQQVPLRCNEFEMRLSEPVPQTNAHESKEWYHASLTRAQAEHMLMRVPRDGAFLVRKRNEPNSYAISFRAEGKIKHCRVQQEGQTVMLGNSEFDSLVDLISYYEKHPLYRKMKLRYPINEEALEKIGTAEPDYGALYEGRNPGFYVEANPMPTFKCAVKALFDYKAQREDELTFIKSAIIQNVEKQEGGWWRGDYGGKKQLWFPSNYVEEMVNPVALEPEREHLDENSPLGDLLRGVLDVPACQIAIRPEGKNNRLFVFSISMASVAHWSLDVAADSQEELQDWVKKIREVAQTADARLTEGKIMERRKKIALELSELVVYCRPVPFDEEKIGTERACYRDMSSFPETKAEKYVNKAKGKKFLQYNRLQLSRIYPKGQRLDSSNYDPLPMWICGSQLVALNFQTPDKPMQMNQALFMTGRHCGYVLQPSTMRDEAFDPFDKSSLRGLEPCAISIEVLGARHLPKNGRGIVCPFVEIEVAGAEYDSTKQKTEFVVDNGLNPVWPAKPFHFQISNPEFAFLRFVVYEEDMFSDQNFLAQATFPVKGLKTGYRAVPLKNNYSEDLELASLLIKIDIFPAKENGDLSPFSGTSLRERGSDASGQLFHGRAREGSFESRYQQPFEDFRISQEHLADHFDSRERRAPRRTRVNGDNRL
modifications: biotin on some lysine residues (incorporated at random from biotin-Lys-tRNA)
B2: un-phosphorylated EGFR 1063-1081 peptide (Peptide, SEQ ID No. 8) (peptide)
peptide: LPVPEYINQSVPKRPAGSVC
modifications: not fully specified
B3: Shc1 (EST clone IMAGE 3907115), in vitro translated, biotin-labelled (protein, UniProt P29353-2 1-473, looked up)
chain: MNKLSGGGGRRTRVEGGQLGGEEWTRHGSFVNKPTRGWLHPNDKVMGPGVSYLVRYMGCVEVLQSMRALDFNTRTQVTREAISLVCEAVPGAKGATRRRKPCSRPLSSILGRSNLKFAGMPITLTVSTSSLNLMAADCKQIIANHHMQSISFASGGDPDTAEYVAYVAKDPVNQRACHILECPEGLAQDVISTIGQAFELRFKQYLRNPPKLVTPHDRMAGFDGSAWDEEEEEPPDHQYYNDFPGKEPPLGGVVDMRLREGAAPGAARPTAPNAQTPSHLGATLPVGQPVGGDPEVRKQMPPPPPCPGRELFDDPSYVNVQNLDKARQAVGGAGPPNPAINGSAPRDLFDMKPFEDALRVPPPPQSVSMAEQLRGEPWFHGKLSRREAEALLQLNGDFLVRESTTTPGQYVLTGLQSGQPKHLLLVDPEGVVRTKDHRFESVSHLISYHMDNHLPIISAGSELCLQQPVERKL
modifications: biotin on some lysine residues (incorporated at random from biotin-Lys-tRNA)
B4: BMX non-receptor tyrosine kinase (EST clone IMAGE 3919253), in vitro translated, biotin-labelled (enzyme, UniProt P51813 1-675, looked up)
chain: MDTKSILEELLLKRSQQKKKMSPNNYKERLFVLTKTNLSYYEYDKMKRGSRKGSIEIKKIRCVEKVNLEEQTPVERQYPFQIVYKDGLLYVYASNEESRSQWLKALQKEIRGNPHLLVKYHSGFFVDGKFLCCQQSCKAAPGCTLWEAYANLHTAVNEEKHRVPTFPDRVLKIPRAVPVLKMDAPSSSTTLAQYDNESKKNYGSQPPSSSTSLAQYDSNSKKIYGSQPNFNMQYIPREDFPDWWQVRKLKSSSSSEDVASSNQKERNVNHTTSKISWEFPESSSSEEEENLDDYDWFAGNISRSQSEQLLRQKGKEGAFMVRNSSQVGMYTVSLFSKAVNDKKGTVKHYHVHTNAENKLYLAENYCFDSIPKLIHYHQHNSAGMITRLRHPVSTKANKVPDSVSLGNGIWELKREEITLLKELGSGQFGVVQLGKWKGQYDVAVKMIKEGSMSEDEFFQEAQTMMKLSHPKLVKFYGVCSKEYPIYIVTEYISNGCLLNYLRSHGKGLEPSQLLEMCYDVCEGMAFLESHQFIHRDLAARNCLVDRDLCVKVSDFGMTRYVLDDQYVSSVGTKFPVKWSAPEVFHYFKYSSKSDVWAFGILMWEVFSLGKQPYDLYDNSQVVLKVSQGHRLYRPHLASDTIYQIMYSCWHELPEKRPTFQQLLSSIEPLREKDKH
modifications: biotin on some lysine residues (incorporated at random from biotin-Lys-tRNA)

Key:
[1] = molecular target: BSA (control coating) (UniProt P02769); test: ECL plate binding assay: BSA control on electrode, biotinylated TnT protein, Sulfo-TAG streptavidin
BSA (control coating), sequence (P02769 25-607 limits assumed): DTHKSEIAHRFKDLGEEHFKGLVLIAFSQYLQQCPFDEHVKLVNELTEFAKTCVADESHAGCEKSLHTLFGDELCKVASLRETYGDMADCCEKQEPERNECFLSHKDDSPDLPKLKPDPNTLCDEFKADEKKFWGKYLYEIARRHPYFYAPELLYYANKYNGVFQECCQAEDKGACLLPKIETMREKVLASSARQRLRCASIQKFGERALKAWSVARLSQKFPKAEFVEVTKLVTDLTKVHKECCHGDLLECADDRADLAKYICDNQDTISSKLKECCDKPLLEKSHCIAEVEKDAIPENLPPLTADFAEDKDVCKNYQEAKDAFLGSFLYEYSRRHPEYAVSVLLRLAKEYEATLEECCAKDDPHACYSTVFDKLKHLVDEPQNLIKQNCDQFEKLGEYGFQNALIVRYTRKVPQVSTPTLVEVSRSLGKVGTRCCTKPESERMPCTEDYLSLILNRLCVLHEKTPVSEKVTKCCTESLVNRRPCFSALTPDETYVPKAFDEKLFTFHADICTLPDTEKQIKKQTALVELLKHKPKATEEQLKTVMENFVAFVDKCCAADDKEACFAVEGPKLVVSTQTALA

[2] = molecular target: Pool A of peptide:BSA conjugates (EGFR-pTyr1148, IkBa-24ppC, Myc-p58Tp62S); test: ECL 4-spot binding assay with pooled peptide-BSA conjugates, biotinylated TnT protein, Sulfo-TAG streptavidin
[3] = molecular target: Pool B of peptide:BSA conjugates (EGFR-pTyr992, EGFR-pTyr1148, Smad3C); test: as above
[4] = molecular target: Pool C of peptide:BSA conjugates (EGFR-pTyr1068, IkBa-24ppC, Smad3C); test: as above
[5] = molecular target: Pool D of peptide:BSA conjugates (EGFR-pTyr992, EGFR-pTyr1068, Myc-p58Tp62S); test: as above
[6] = molecular target: Grb2 (EST clone IMAGE 4398016), in vitro translated, biotin-labelled (UniProt P62993); test: competition: immobilized Grb2, +EGFR, un-phosphorylated peptide in solution; bound EGFR detected by its kinase activity on pEY
Grb2 (EST clone IMAGE 4398016), in vitro translated, biotin-labelled, sequence (P62993 whole entry): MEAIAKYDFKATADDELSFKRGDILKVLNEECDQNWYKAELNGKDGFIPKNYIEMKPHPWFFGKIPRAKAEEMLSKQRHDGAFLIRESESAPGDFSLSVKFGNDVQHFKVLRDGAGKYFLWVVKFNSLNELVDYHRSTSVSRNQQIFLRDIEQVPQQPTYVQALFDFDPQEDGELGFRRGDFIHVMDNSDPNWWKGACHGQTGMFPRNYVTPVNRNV

[7] = molecular target: T1, EGFR-pY1068 phosphopeptide, LPVPE(p)…; test: ECL 7-spot plate screen, peptide-BSA spot, biotinylated TnT protein, Ru-streptavidin; signal normalized in two steps
T1 sequence (peptide, phosphotyrosine at (p)Y (residue 6 of the printed peptide; EGFR Tyr1068)): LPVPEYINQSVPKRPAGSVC

Row | Binder | Average ECL signal [1] | ECL signal [2] | ECL signal [3] | ECL signal [4] | ECL signal [5] | ECL signal of EGFR bound to Grb2 in presence of the peptide [6] | normalized ECL signal [7]
1 | B1 | 342 ECL signal | 239 ECL signal | 2780 ECL signal | 1550 ECL signal | 3390 ECL signal |  | 
2 | B2 |  |  |  |  |  | 34100 ECL signal | 
3 | B3 | 342 ECL signal | 260 ECL signal | 318 ECL signal | 24 ECL signal | 26 ECL signal |  | 
4 | B4 |  |  |  |  |  |  | 3
